For data set [1] the following is noted: background statement; cited from earlier work.
Substrate in data set [2]: COc1cccc2c1CCOC2C1=NCCN1
Description: Incubation with rhCYP2D6 Supersomes: intrinsic clearance and enzyme kinetics. The data set is classed as in vitro ADME, human. The settings on record: other: rhCYP2D6, 0.16-100 μM, 10 pmol/ml CYP. The protocol:
The objective of these studies was to identify enzymes involved in the metabolism of tasipimidine in human. The test substance tasipimidine and the reference compounds for main tasipimidine metabolites 1-(4,5-dihydro-1H-imidazol-2-yl) isochroman-5-ol (metabolite 1), 2-(5-methoxyisochroman-1-yl)-1H-imidazole (metabolite 2), and 1-(1H-imidazol-2-yl) isochroman-5-ol (metabolite 3) were supplied by Orion Pharma. To further support the findings of recombinant enzyme incubations tasipimidine was incubated with human hepatocytes with two enzyme inhibitors, i.e. 1-aminobenzotriazole (ABT, non-selective CYP inhibitor), and quinidine (CYP2D6 inhibitor).
Moreover, enzyme kinetics of tasipimidine metabolism was studied in rhCYP2D6.
Enzyme kinetics of tasipidimine metabolism by rhCYP2D6 was studied by incubating the test compound at 0.16, 0.41, 1, 2.6, 6.4, 16, 40 and 100 μM concentrations containing 10 pmol/ml of the CYP enzyme for 0, 5, 10, 20, and 30 min. Enzyme kinetics was estimated from CLint values measured for the test compound at different concentrations while metabolite characterisation was not performed.
The analysis for disappearance of tasipimidine and the identification of the formed metabolites were carried out by using a high-resolution liquid chromatographic-mass spectrometer supported by accurate masses (UPLC-HRMS). […]

Substrate in data set [3]: COc1cccc2c1CCOC2C1=NCCN1
Description: CYP2D6 kinetic parameters (PBPK input parameters). The format is in vitro ADME. The following applies: other: input parameter of the PBPK model. An excerpt: A physiologically based pharmacokinetic (PBPK) model was used to simulate the plasma exposure of tasipimidine in fasted healthy 30 years old males of 70 kg with different CYP2D6 phenotypes. Simulations were produced with the commercial GastroPlus® 9.8.2 software.

With `Clc1cccc(Cl)c1N=C1NCCN1` [clonidine], the “elimination half-life (t1/2)” value in data set [1] is 14 h.

B1: rhCYP2D6 (Homo sapiens) (protein)
chain: MGLEALVPLAVIVAIFLLLVDLMHRRQRWAARYPPGPLPLPGLGNLLHVDFQNTPYCFDQLRRRFGDVFSLQLAWTPVVVLNGLAAVREALVTHGEDTADRPPVPITQILGFGPRSQGVFLARYGPAWREQRRFSVSTLRNLGLGKKSLEQWVTEEAACLCAAFANHSGRPFRPNGLLDKAVSNVIASLTCGRRFEYDDPRFLRLLDLAQEGLKEESGFLREVLNAVPVLLHIPALAGKVLRFQKAFLTQLDELLTEHRMTWDPAQPPRDLTEAFLAEMEKAKGNPESSFNDENLRIVVADLFSAGMVTTSTTLAWGLLLMILHPDVQRRVQQEIDDVIGQVRRPEMGDQAHMPYTTAVIHEVQRFGDIVPLGVTHMTSRDIEVQGFRIPKGTTLITNLSSVLKDEAVWEKPFRFHPEHFLDAQGHFVKPEAFLPFSAGRRACLGEPLARMELFLFFTSLLQHFSFSVPTGQPRPSHHGVFAFLVSPSPYELCAVPR
notes: purchased; host or cells: baculovirus-transfected insect cells
By Km is commonly meant the substrate concentration at which the rate is half of its maximum. For B1, in data set [2], the Km came out at 0.53 µM and the kcat amounted to 3.1 pmol/min/pmol CYP.

B2: CYP2D6 (Homo sapiens) (protein)
chain: MGLEALVPLAVIVAIFLLLVDLMHRRQRWAARYPPGPLPLPGLGNLLHVDFQNTPYCFDQLRRRFGDVFSLQLAWTPVVVLNGLAAVREALVTHGEDTADRPPVPITQILGFGPRSQGVFLARYGPAWREQRRFSVSTLRNLGLGKKSLEQWVTEEAACLCAAFANHSGRPFRPNGLLDKAVSNVIASLTCGRRFEYDDPRFLRLLDLAQEGLKEESGFLREVLNAVPVLLHIPALAGKVLRFQKAFLTQLDELLTEHRMTWDPAQPPRDLTEAFLAEMEKAKGNPESSFNDENLRIVVADLFSAGMVTTSTTLAWGLLLMILHPDVQRRVQQEIDDVIGQVRRPEMGDQAHMPYTTAVIHEVQRFGDIVPLGVTHMTSRDIEVQGFRIPKGTTLITNLSSVLKDEAVWEKPFRFHPEHFLDAQGHFVKPEAFLPFSAGRRACLGEPLARMELFLFFTSLLQHFSFSVPTGQPRPSHHGVFAFLVSPSPYELCAVPR
As for B2, in data set [3], the Km came out at 0.106 mg/L.

These data come from US20260097017A1, “TASIPIMIDINE AND CYP2D6 INHIBITOR COMBINATION TREATMENT” (ORION CORPORATION, priority 2022, published 2026).
